We go through three substances from patent publication EP0614981A1.

For this test, the target named is IFNγ (UniProt P01579). The test is described as follows: cell-based or functional assay.
Chain of UniProt P01579 (P01579 24-166 limits assumed): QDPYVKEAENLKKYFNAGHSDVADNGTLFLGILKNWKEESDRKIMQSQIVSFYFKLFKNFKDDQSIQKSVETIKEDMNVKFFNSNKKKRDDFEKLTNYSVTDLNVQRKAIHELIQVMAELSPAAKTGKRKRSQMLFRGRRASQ
soluble human IFNγ receptor (shIFNγR) gave an IC50 nM, inhibition of IFNγ antiviral activity (CPE, WISH cells, EMC virus) of 216 nM and an IC50 µg/ml, inhibition of IFNγ antiviral activity (CPE, WISH cells, EMC virus) of 6.7 µg/mL.

For “hIFNγR-HG3 (from UniProt P01860 99-377) (Fc fusion)”, the IC50 nM, inhibition of IFNγ antiviral activity (CPE, WISH cells, EMC virus) was 11 nM and the IC50 µg/ml, inhibition of IFNγ antiviral activity (CPE, WISH cells, EMC virus) is 2 µg/mL.

“hIFNγR-HG1 (from UniProt P01857 99-330) (Fc fusion)” gave an IC50 nM, inhibition of IFNγ antiviral activity (CPE, WISH cells, EMC virus) of 26 nM and an IC50 µg/ml, inhibition of IFNγ antiviral activity (CPE, WISH cells, EMC virus) of 4.4 µg/mL.
